# According to the supplement of paper PMC7877785:
# ± gives the uncertainty stated by the source.
# Test: self-splicing fitness, log relative to wild type (ln ratio); higher = more splicing; Tetrahymena group I intron in knt gene, E. coli kanamycin selection, DiMSum; sequences stand for … in CUCUCU…GGAGGGAAAAGUUAUCAGGCAUGCACCUGGUAGCUAGUCUUUAAACCAAUAGAUUGCAUCGGUUUAAAAGGCAAGACCGUCAAAUUGCGGGAAAGGGGUCAACAGCCGUUCAGUACCAAGUCUCAGGGGAAACUUUGAGAUGGCCUUGCAAAGGGUAUGGUAAUAAGCUGACGGACAUGGUCCUAACCACGCAGCCAAGUCCUAAGUCAACAGAUCUUCUGUUGAUAUGGAUGCAGUUCACAGACUAAAUGUCGGUCGGGGAAGAUGUAUUCUUCUCAUAAGAUAUAGUCGGACCUCUCCUUAAUGGGAGCUAGCGGAUGAAGUGAUGCAACACUGGAGCCGCUGGGAACUAAUUUGUAUGCGAAAGUAUAUUGAUUAGUUUUGGAGUACUCGUGGUCG
# Outline: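 Six replicate transformations of E. coli BL21(DE3) with a pET-22b(+) library were grown overnight at 37°C or 30°C. The library randomised all eight P1ex-region intron nucleotides, the intron lying in the knt kanamycin-resistance gene, and plates were LB agar with or without 25 μg/mL kanamycin plus 100 μg/mL carbenicillin, 50 μM IPTG and 0.2% rhamnose. Pooled colonies were amplicon-sequenced on an Illumina HiSeq 2500, and fitness is the DiMSum error-weighted combination of wild-type-normalised replicate fold changes, kanamycin versus none.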
Sequence,self-splicing fitness (ln) (30 °C),self-splicing fitness (ln) (37 °C)
GCCCAGCAAUAUUACGAAAU,-1.7 ± 0.068,-1.36 ± 0.089
GCCCAGCAAUAUUACGAACA,-1.58 ± 0.12,-1.46 ± 0.11
GCCCAGCAAUAUUACGAACG,-1.79 ± 0.32,-0.725 ± 0.34
GCCCAGCAAUAUUACGAUUG,-2.63 ± 0.14,-2.57 ± 0.22
GCCCAGCAAUAUUACGCAAU,-1.23 ± 0.059,-0.336 ± 0.069
GCCCAGCAAUAUUACGCACC,-0.112 ± 0.075,0.19 ± 0.097
GCCCAGCAAUAUUACGCAGG,-3.19 ± 0.13,-2.27 ± 0.15
GCCCAGCAAUAUUACGCCAG,-1.92 ± 0.13,-2.32 ± 0.23
GCCCAGCAAUAUUACGCCCA,-0.496 ± 0.15,-1.1 ± 0.17
GCCCAGCAAUAUUACGCCCG,-4 ± 0.28,-2.36 ± 0.18
GCCCAGCAAUAUUACGCGAA,-2.09 ± 0.071,-0.554 ± 0.072
GCCCAGCAAUAUUACGGAGA,-0.433 ± 0.062,-0.0159 ± 0.072
GCCCAGCAAUAUUACGGAGU,-2.57 ± 0.084,-0.683 ± 0.085
GCCCAGCAAUAUUACGGGAG,-0.834 ± 0.057,-0.496 ± 0.067
GCCCAGCAAUAUUACGGGGG,-3.34 ± 0.11,-2.78 ± 0.15
GCCCAGCAAUAUUACGGGUC,-4.06 ± 0.15,-2.4 ± 0.16
GCCCAGCAAUAUUACGGGUG,-1.58 ± 0.048,-0.819 ± 0.054
GCCCAGCAAUAUUACGGUGC,-3.13 ± 0.14,-2.52 ± 0.18
GCCCAGCAAUAUUACGGUUA,-0.529 ± 0.054,0.488 ± 0.062
GCCCAGCAAUAUUACGUCGA,-1.5 ± 0.082,-1.09 ± 0.086
GCCCAGCAAUAUUACGUGGA,-0.734 ± 0.063,0.199 ± 0.076
GCCCAGCAAUAUUACGUUGG,-3.22 ± 0.13,-2.92 ± 0.15
GCCCAGCAAUAUUACGUUUA,-1.7 ± 0.079,-0.893 ± 0.078
GCCGAGCAAUAUUACGAAUU,-2.59 ± 0.11,-2.21 ± 0.15
GCCGAGCAAUAUUACGACGU,-0.371 ± 0.11,-0.741 ± 0.11

Sequence,self-splicing fitness (ln) (30 °C),self-splicing fitness (ln) (37 °C)
GCCGAGCAAUAUUACGAGGG,-3.58 ± 0.27,-1.91 ± 0.22
GCCGAGCAAUAUUACGAGUC,-1.86 ± 0.14,-0.892 ± 0.16
GCCGAGCAAUAUUACGAGUG,-2.22 ± 0.14,-2.16 ± 0.13
GCCGAGCAAUAUUACGAUAG,-2.94 ± 0.21,-2.13 ± 0.21
GCCGAGCAAUAUUACGAUGA,-2.38 ± 0.12,-1.28 ± 0.1
GCCGAGCAAUAUUACGAUGG,-2.48 ± 0.26,-2.96 ± 0.31
GCCGAGCAAUAUUACGCAGA,-3.39 ± 0.47,-2.39 ± 0.29
GCCGAGCAAUAUUACGCAUU,-2.73 ± 0.14,-0.759 ± 0.13
GCCGAGCAAUAUUACGCGGG,-4.07 ± 0.2,-2.3 ± 0.18
GCCGAGCAAUAUUACGCUAG,-2.67 ± 0.17,-3.17 ± 0.29
GCCGAGCAAUAUUACGCUGG,,-2.07 ± 0.33
GCCGAGCAAUAUUACGGACA,-0.642 ± 0.083,0.233 ± 0.082
GCCGAGCAAUAUUACGGAGG,-3.45 ± 0.18,-2.1 ± 0.21
GCCGAGCAAUAUUACGGCAA,-2.4 ± 0.33,-1.91 ± 0.31
GCCGAGCAAUAUUACGGGGU,-4.35 ± 0.33,-2.56 ± 0.2
GCCGAGCAAUAUUACGGGUU,-3.35 ± 0.17,-0.886 ± 0.092
GCCGAGCAAUAUUACGUCGC,-4.48 ± 0.47,-1.88 ± 0.25
GCCGAGCAAUAUUACGUCUG,-3.36 ± 0.32,-2 ± 0.27
GCCGAGCAAUAUUACGUGAC,-2.14 ± 0.15,-1.16 ± 0.19
GCCGAGCAAUAUUACGUGCA,-2.31 ± 0.25,-2.24 ± 0.18
GCCGAGCAAUAUUACGUUAC,-3.09 ± 0.21,-2.3 ± 0.19
GCCUAGCAAUAUUACGACAA,-2.19 ± 0.23,-2.22 ± 0.32
GCCUAGCAAUAUUACGACUG,-3.25 ± 0.27,-2.97 ± 0.4
GCCUAGCAAUAUUACGAGAA,,-1.26 ± 0.4
GCCUAGCAAUAUUACGAGCC,-1.8 ± 0.15,-1.67 ± 0.23

Sequence,self-splicing fitness (ln) (30 °C),self-splicing fitness (ln) (37 °C)
GCCUAGCAAUAUUACGAUUU,-1.98 ± 0.092,-1.34 ± 0.097
GCCUAGCAAUAUUACGCAAA,-0.846 ± 0.14,-1.41 ± 0.16
GCCUAGCAAUAUUACGCACG,-1.79 ± 0.23,-1.43 ± 0.19
GCCUAGCAAUAUUACGCAGG,-4.18 ± 0.28,-2.44 ± 0.25
GCCUAGCAAUAUUACGGACA,-1.03 ± 0.097,-0.277 ± 0.11
GCCUAGCAAUAUUACGGAGG,-2.47 ± 0.29,-2.65 ± 0.28
GCCUAGCAAUAUUACGGCCG,-3.44 ± 0.26,-2.37 ± 0.32
GCCUAGCAAUAUUACGGCGA,-2.64 ± 0.4,-1.41 ± 0.28
GCCUAGCAAUAUUACGGCGC,-0.67 ± 0.14,0.263 ± 0.18
GCCUAGCAAUAUUACGGCGU,-0.505 ± 0.074,-0.0919 ± 0.08
GCCUAGCAAUAUUACGGCUA,-1.2 ± 0.46,-2.49 ± 0.39
GCCUAGCAAUAUUACGGGCA,-1.3 ± 0.12,-1.61 ± 0.12
GCCUAGCAAUAUUACGGGGG,-2.92 ± 0.22,-1.34 ± 0.13
GCCUAGCAAUAUUACGGUAG,-3.79 ± 0.18,-2.99 ± 0.27
GCCUAGCAAUAUUACGUCAU,-2.73 ± 0.2,-1.4 ± 0.17
GCCUAGCAAUAUUACGUCCU,-1.68 ± 0.068,-0.494 ± 0.096
GCCUAGCAAUAUUACGUCGA,-1.67 ± 0.17,-1.6 ± 0.21
GCCUAGCAAUAUUACGUGGG,-4.52 ± 0.23,-3.36 ± 0.3
GCCUAGCAAUAUUACGUGUC,-1.13 ± 0.056,-0.843 ± 0.058
GCGAAGCAAUAUUACGAAAA,-3.24 ± 0.43,
GCGAAGCAAUAUUACGAAAU,-3.46 ± 0.35,-1.07 ± 0.22
GCGAAGCAAUAUUACGAACA,-1.49 ± 0.34,-1.16 ± 0.29
GCGAAGCAAUAUUACGAGCG,-2.04 ± 0.14,-1.11 ± 0.19
GCGAAGCAAUAUUACGAGGA,,-1.58 ± 0.31
GCGAAGCAAUAUUACGAUUU,-1.09 ± 0.057,-0.156 ± 0.075

Sequence,self-splicing fitness (ln) (30 °C),self-splicing fitness (ln) (37 °C)
GCGAAGCAAUAUUACGCAAG,-2.51 ± 0.42,
GCGAAGCAAUAUUACGCACU,-1.72 ± 0.18,-0.633 ± 0.21
GCGAAGCAAUAUUACGCAUC,-4.03 ± 0.44,-1.78 ± 0.23
GCGAAGCAAUAUUACGCAUG,-3.12 ± 0.44,-2.76 ± 0.24
GCGAAGCAAUAUUACGCCAC,,-2.24 ± 0.42
GCGAAGCAAUAUUACGCCUU,,-1.5 ± 0.26
GCGAAGCAAUAUUACGCUAU,-2.45 ± 0.1,-1.25 ± 0.11
GCGAAGCAAUAUUACGGAAU,-3.17 ± 0.13,-1.73 ± 0.13
GCGAAGCAAUAUUACGGAGC,-2.69 ± 0.16,-2.52 ± 0.21
GCGAAGCAAUAUUACGGCCA,-0.992 ± 0.092,-0.821 ± 0.1
GCGAAGCAAUAUUACGGGAG,-3.05 ± 0.17,-2.62 ± 0.22
GCGAAGCAAUAUUACGGGGU,-3.89 ± 0.34,-2.89 ± 0.29
GCGAAGCAAUAUUACGGUCG,-3.65 ± 0.32,-2.77 ± 0.4
GCGAAGCAAUAUUACGGUUG,-1.54 ± 0.11,-1.9 ± 0.15
GCGAAGCAAUAUUACGUCGA,-2.01 ± 0.1,-0.792 ± 0.094
GCGAAGCAAUAUUACGUGCC,-3.73 ± 0.18,-3 ± 0.23
GCGAAGCAAUAUUACGUUAG,-2.77 ± 0.12,-2.35 ± 0.15
GCGCAGCAAUAUUACGAAAG,-2.66 ± 0.16,-1.68 ± 0.14
GCGCAGCAAUAUUACGAAGG,-1.79 ± 0.087,-0.733 ± 0.12
GCGCAGCAAUAUUACGACAA,-0.598 ± 0.12,-0.342 ± 0.11
GCGCAGCAAUAUUACGACUC,-0.32 ± 0.17,0.304 ± 0.15
GCGCAGCAAUAUUACGACUG,-1.91 ± 0.12,-1.98 ± 0.23
